Assay [1] deals with adenovirus terminal protein-thioredoxin fusion protein (TP–Trx), bacterially expressed (adenovirus (serotype not given)). Nature of the assay: AlphaScreen or HTRF; 30 nM TP–Trx (or Trx tag alone) on nickel NTA donor beads, serial dilutions of GST-tagged importins or GST control on GST acceptor beads; 0.5% BSA added, dilutions in PBS, room temperature in the dark; one-phase association fit. In general terms: In Alpha technology, singlet oxygen from a donor bead excites a nearby acceptor bead.

For assay [2] the target is unchanged.

As usually defined, the Kd is the concentration at which binding is half-saturated. Higher therefore signals a looser complex.

In turn, “importin β1 (Imp β1), GST-tagged (from UniProt P70168 1-876) (natural protein)” had an equilibrium dissociation constant (Kd) in assay [1] of 0.021 µM. In addition, in assay [2], the Nf/Cf of TP–Trx–AF594 microinjected into HeLa cells incubated with importazole (40 µM), a selective Imp β inhibitor; 1.62 with DMSO was 1.04.

The values are drawn from PMC8036708.
